In patent US20190359687A1 (Bayer, published 2019):

T1: recombinant human glycophorin A ectodomain protein (human, UniProt P02724 20-91)
T1 construct: 72 amino acids of the extracellular region; also called Hu-rec GPA
T1 sequence: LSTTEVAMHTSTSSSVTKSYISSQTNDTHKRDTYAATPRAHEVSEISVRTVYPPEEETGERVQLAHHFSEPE

T2: native human glycophorin A protein (human, UniProt P02724 20-150)
T2 construct: mature; also called Hu-nat GPA
T2 sequence (looked up): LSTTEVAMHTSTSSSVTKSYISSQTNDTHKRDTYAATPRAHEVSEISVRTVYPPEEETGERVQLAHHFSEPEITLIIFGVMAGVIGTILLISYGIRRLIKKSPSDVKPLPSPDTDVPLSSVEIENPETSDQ

T3: human glycophorin A on human red blood cells or red blood cell membranes (human, UniProt P02724 20-150)
T3 construct: whole, on cells; also called hRBC; human RBC membranes
T3 sequence (looked up): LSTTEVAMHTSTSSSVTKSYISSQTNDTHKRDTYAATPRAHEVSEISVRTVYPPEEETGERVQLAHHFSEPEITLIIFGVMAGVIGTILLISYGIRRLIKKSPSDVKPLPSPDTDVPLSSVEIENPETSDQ

T4: human glycophorin A in the red blood cell membrane (human, UniProt P02724 20-150)
T4 construct: whole, on cells; used for intact RBC, isolated RBC membranes and transfected cells; the assay field tells which; also called GPA; hGPA
T4 sequence (looked up): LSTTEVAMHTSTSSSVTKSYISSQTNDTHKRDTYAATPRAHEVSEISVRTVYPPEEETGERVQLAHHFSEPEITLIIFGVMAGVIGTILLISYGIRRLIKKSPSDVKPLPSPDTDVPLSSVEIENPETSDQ

T5: Rhesus monkey glycophorin A on Rhesus monkey red blood cells (Rhesus monkey, UniProt A0A1D5Q349 20-150)
T5 construct: whole, on cells; also called Rhesus RBC; monkey GPA
T5 sequence: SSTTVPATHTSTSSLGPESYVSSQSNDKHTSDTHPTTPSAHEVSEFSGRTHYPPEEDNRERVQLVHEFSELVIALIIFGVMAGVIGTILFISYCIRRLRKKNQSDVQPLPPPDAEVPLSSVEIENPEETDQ


Experiments:
[1] = biological target: T1, recombinant human glycophorin A …; experiment: ELISA, Fab on coated recombinant human GPA ectodomain
[2] = biological target: T6, Cynomolgus monkey recombinant glycophorin A ectodomain (Cynomolgus monkey); experiment: ELISA, Fab on coated recombinant cyno GPA ectodomain
T6 construct: extracellular domain

[3] = biological target: T2, native human glycophorin A protein; experiment: ELISA, Fab on coated native human GPA
[4] = biological target: T3, human glycophorin A on human red blood …; experiment: SPR (Biacore), Fab over human RBC membranes, 1:1 fit;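 also: human RBC membrane preparations captured on an L1 sensor surface, with antibody passed over them as analyte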
Protocol: Kinetic analysis of the antibody binding to human red blood cell membranes was also performed using surface plasmon resonance (SPR) using a Biacore instrument. In this assay membranes prepared from human red blood cells were attached to a L1 sensor matrix and antibodies were flowed over the RBC membranes.

[5] = biological target: T3, human glycophorin A on human red blood …; experiment: ELISA, Fab on coated human RBC membranes
Protocol: These membranes are prepared by first isolating red blood cells from citrated whole blood. Citrated whole blood is layered on to Ficol and centrifuged at low speed for 20 minutes to pellet the red blood cells. The supernatant containing plasma and other blood cells is discarded and the red blood cell pellet is subsequently washed 3 times in 10 cell volumes of phosphate buffered saline (PBS). A 10 ml pellet of purified red blood cells is resuspended in 30 ml of cold low osmorality 20 mM phosphate buffer (pH7.4) and incubated for 30 mins to break open the RBC. After Centrifugation at 10,000 rpm for 30 min at 5° C. the hemoglobin containing supernatant is discarded. To the membrane pellet another 30 ml of 20 mM phosphate buffer is added and the sample centrifuged again at 10,000 rpm for 30 min at 5° C. to pellet the membrane fraction. This wash and centrifugation step is repeated another 4 times. The red blood cell membranes are then resuspended in 20 mL of PBS to achieve an equivalent of approximately 2.5E9 cells/mL and stored frozen at −20° C. Binding of antibodies to RBC ghost can be measured by ELISA in which the RBC ghost suspension (5×10⁶ in 100 ul PBS) was added to each well of flat bottom 96-well ELISA microtiter plates (2HB, Immunolon) and the plates incubated overnight at 4° C. The plates were blocked with Starting blocking buffer (Thermo Fisher) for 2 hours at room temperature (RT). Antibodies or other test molecules were added to each well and incubated for 1.5 hours at RT. After 4 washes 100 ul of an appropriate detection antibody was added to each well and incubated for 1 hour at RT. After 4 washes the detection antibody was measured using appropriate detection reagents.

[6] = biological target: T7, Cynomolgus monkey glycophorin A on Cynomolgus monkey red blood cells (Cynomolgus monkey); experiment: FACS, RBC Cy02
T7 construct: whole, on cells; also called Cyno RBC; Cyno GPA
Protocol: (§1) The binding of the humanized variants to intact red blood cells (RBC) from humans (Hu01 to 03; 3 individuals), Rhesus monkey (Rh01 to 03; 3 individuals) and Cynomolgus monkey (Cy01 to 02; 2 individuals) was measured by fluorescence activated cell sorting (FACS).

[7] = biological target: T7, Cynomolgus monkey glycophorin A on …; experiment: FACS, RBC Cy01
Protocol: as §1

[8] = biological target: T4, human glycophorin A in the red blood …; experiment: FACS, RBC Hu02
Protocol: as §1

[9] = biological target: T5, Rhesus monkey glycophorin A on Rhesus …; experiment: FACS, RBC Rh03
Protocol: as §1

[10] = biological target: T5, Rhesus monkey glycophorin A on Rhesus …; experiment: FACS, RBC Rh02
[11] = biological target: T5, Rhesus monkey glycophorin A on Rhesus …; experiment: FACS, RBC Rh01
Protocol: as §1

[12] = biological target: T4, human glycophorin A in the red blood …; experiment: FACS, RBC Hu03
Protocol: as §1

[13] = biological target: T4, human glycophorin A in the red blood …; experiment: FACS, RBC Hu01
Protocol: as §1

| binding in ELISA relative to parental Fab [1] | binding in ELISA relative to parental Fab [2] | binding in ELISA relative to parental Fab [3] | Kd [4] | koff [4] | kon [4] | binding in ELISA relative to parental Fab [5] | fluorescence intensity [6] | fluorescence intensity [7] | fluorescence intensity [8] | fluorescence intensity [9] | fluorescence intensity [10] | fluorescence intensity [11] | fluorescence intensity [12] | fluorescence intensity [13] | Binder |
| --- | --- | --- | --- | --- | --- | --- | --- | --- | --- | --- | --- | --- | --- | --- | --- |
| 1.1 relative to parental Fab | 1 relative to parental Fab | 0.8 relative to parental Fab | 87 nM | 0.036 s⁻¹ | 420000 M⁻¹ s⁻¹ | 0.7 relative to parental Fab | – | – | – | – | – | – | – | – | TPP-5675, Hu6C12-24 Fab variant VH: (I48M, L70M, T72R) (Fab, V domains shown, Built on the parental Fab TPP-4935) VH: EVQLVQSGAEVKKPGASVKVSCKASGYTFTTYTIHWVRQAPGQGLEWMGYINPSSDYTRYNPKFKDRVTMTRDKSTSTAYMELRSLRSDDTAVYYCQTGTRDYWGQGTTVTVSS VL: DIQLTQSPSFLSASVGDRVTITCSAASSVSYIYWFQQKPGKAPKLLIYSTSTLPSGVPSRFSGSGSGTEYTLTISSLQPEDFATYYCHQRNSFPFTFGQGTKLEIKR |
| – | – | – | – | – | – | – | 1080 | 978 | 298 | 1480 | 1480 | 1480 | 384 | 514 | Hu6C12-14 (antibody, V domains shown, IgG format; VH.1e + Vk.1a) VH: EVQLVQSGAEVKKPGASVKVSCKASGYTFTTYTIHWVRQAPGQGLEWMGYINPSSDYTRYNPKFKDRVTLTTDTSTSTAYMELRSLRSDDTAVYYCATGTRDYWGQGTTVTVSS VL: DIQLTQSPSFLSASVGDRVTITCSAASSVSYIYWYQQKPGKAPKLLIYSTSTLPSGVPSRFSGSGSGTEYTLTISSLQPEDFATYYCHQRNSFPFTFGQGTKLEIK |
| 4.7 relative to parental Fab | 1.1 relative to parental Fab | 5.9 relative to parental Fab | 3.9 nM | 0.0059 s⁻¹ | 1.5e+06 M⁻¹ s⁻¹ | 7 relative to parental Fab | – | – | – | – | – | – | – | – | TPP-5842, Hu6C12-24 Fab variant VL: (S24R, A26S, S49A, P54Q, F95Y); VH: (D66G, L70M, T72R) (Fab, V domains shown, Built on the parental Fab TPP-4935) VH: EVQLVQSGAEVKKPGASVKVSCKASGYTFTTYTIHWVRQAPGQGLEWIGYINPSSDYTRYNPKFKGRVTMTRDKSTSTAYMELRSLRSDDTAVYYCQTGTRDYWGQGTTVTVSS VL: DIQLTQSPSFLSASVGDRVTITCRASSSVSYIYWFQQKPGKAPKLLIYATSTLQSGVPSRFSGSGSGTEYTLTISSLQPEDFATYYCHQRNSFPYTFGQGTKLEIKR |
| – | – | – | – | – | – | – | 1020 | 960 | 315 | 1420 | 1440 | 1530 | 387 | 548 | Hu6C12-11 (antibody, V domains shown, IgG format; VH.1b + Vk.1a) VH: EVQLVQSGAEVKKPGASVKVSCKASGYTFTTYTIHWVRQAPGQGLEWMGYINPSSDYTRYNPKFKDRVTMTTDTSTSTAYMELRSLRSDDTAVYYCATGTRDYWGQGTTVTVSS VL: DIQLTQSPSFLSASVGDRVTITCSAASSVSYIYWYQQKPGKAPKLLIYSTSTLPSGVPSRFSGSGSGTEYTLTISSLQPEDFATYYCHQRNSFPFTFGQGTKLEIK |
| – | – | – | – | – | – | – | 1120 | 908 | – | 1340 | 1330 | 1470 | – | – | Hu6C12-21 (antibody, V domains shown, IgG format; VH.1d + Vk.1b) VH: EVQLVQSGAEVKKPGASVKVSCKASGYTFTTYTIHWVRQAPGQGLEWMGYINPSSDYTRYNPKFKDRVTLTTDTSTSTAYMELRSLRSDDTAVYYCQRGTRDYWGQGTTVTVSS VL: DIQLTQSPSFLSASVGDRVTITCSAASSVSYIYWFQQKPGKAPKLLIYSTSTLPSGVPSRFSGSGSGTEYTLTISSLQPEDFATYYCHQRNSFPFTFGQGTKLEIK |
| 1.1 relative to parental Fab | 1.2 relative to parental Fab | 1.2 relative to parental Fab | 37 nM | 0.041 s⁻¹ | 1.1e+06 M⁻¹ s⁻¹ | 0.8 relative to parental Fab | – | – | – | – | – | – | – | – | TPP-5678, Hu6C12-24 Fab variant VH: (I48M, D66G, L70M, T72R) (Fab, V domains shown, Built on the parental Fab TPP-4935) VH: EVQLVQSGAEVKKPGASVKVSCKASGYTFTTYTIHWVRQAPGQGLEWMGYINPSSDYTRYNPKFKGRVTMTRDKSTSTAYMELRSLRSDDTAVYYCQTGTRDYWGQGTTVTVSS VL: DIQLTQSPSFLSASVGDRVTITCSAASSVSYIYWFQQKPGKAPKLLIYSTSTLPSGVPSRFSGSGSGTEYTLTISSLQPEDFATYYCHQRNSFPFTFGQGTKLEIKR |
| 4.2 relative to parental Fab | 1 relative to parental Fab | 5.3 relative to parental Fab | 4.1 nM | 0.0046 s⁻¹ | 1.1e+06 M⁻¹ s⁻¹ | 6 relative to parental Fab | – | – | – | – | – | – | – | – | TPP-5840, Hu6C12-24 Fab variant VL: (S24R, A26S, S49A, P54Q, F95Y); VH: (L70M, T72R) (Fab, V domains shown, Built on the parental Fab TPP-4935) VH: EVQLVQSGAEVKKPGASVKVSCKASGYTFTTYTIHWVRQAPGQGLEWIGYINPSSDYTRYNPKFKDRVTMTRDKSTSTAYMELRSLRSDDTAVYYCQTGTRDYWGQGTTVTVSS VL: DIQLTQSPSFLSASVGDRVTITCRASSSVSYIYWFQQKPGKAPKLLIYATSTLQSGVPSRFSGSGSGTEYTLTISSLQPEDFATYYCHQRNSFPYTFGQGTKLEIKR |
| 4.7 relative to parental Fab | 1.1 relative to parental Fab | 5.6 relative to parental Fab | 3.1 nM | 0.004 s⁻¹ | 1.3e+06 M⁻¹ s⁻¹ | 9.3 relative to parental Fab | – | – | – | – | – | – | – | – | TPP-5838, Hu6C12-24 Fab variant VL: (S24R, A26S, S49A, P54Q, F95Y); VH: (I48M, D66G, L70M) (Fab, V domains shown, Built on the parental Fab TPP-4935) VH: EVQLVQSGAEVKKPGASVKVSCKASGYTFTTYTIHWVRQAPGQGLEWMGYINPSSDYTRYNPKFKGRVTMTTDKSTSTAYMELRSLRSDDTAVYYCQTGTRDYWGQGTTVTVSS VL: DIQLTQSPSFLSASVGDRVTITCRASSSVSYIYWFQQKPGKAPKLLIYATSTLQSGVPSRFSGSGSGTEYTLTISSLQPEDFATYYCHQRNSFPYTFGQGTKLEIKR |
| 4.1 relative to parental Fab | 1 relative to parental Fab | 5.1 relative to parental Fab | 3.6 nM | 0.0042 s⁻¹ | 1.2e+06 M⁻¹ s⁻¹ | 4.7 relative to parental Fab | – | – | – | – | – | – | – | – | TPP-5836, Hu6C12-24 Fab variant VL: (S24R, A26S, S49A, P54Q, F95Y); VH: (I48M, L70M, T72R) (Fab, V domains shown, Built on the parental Fab TPP-4935) VH: EVQLVQSGAEVKKPGASVKVSCKASGYTFTTYTIHWVRQAPGQGLEWMGYINPSSDYTRYNPKFKDRVTMTRDKSTSTAYMELRSLRSDDTAVYYCQTGTRDYWGQGTTVTVSS VL: DIQLTQSPSFLSASVGDRVTITCRASSSVSYIYWFQQKPGKAPKLLIYATSTLQSGVPSRFSGSGSGTEYTLTISSLQPEDFATYYCHQRNSFPYTFGQGTKLEIKR |
| 4.5 relative to parental Fab | 1.1 relative to parental Fab | 5.2 relative to parental Fab | – | – | – | 9.1 relative to parental Fab | – | – | – | – | – | – | – | – | TPP-5837, Hu6C12-24 Fab variant VL: (S24R, A26S, S49A, P54Q, F95Y); VH: (I48M, D66G) (Fab, V domains shown, Built on the parental Fab TPP-4935) VH: EVQLVQSGAEVKKPGASVKVSCKASGYTFTTYTIHWVRQAPGQGLEWMGYINPSSDYTRYNPKFKGRVTLTTDKSTSTAYMELRSLRSDDTAVYYCQTGTRDYWGQGTTVTVSS VL: DIQLTQSPSFLSASVGDRVTITCRASSSVSYIYWFQQKPGKAPKLLIYATSTLQSGVPSRFSGSGSGTEYTLTISSLQPEDFATYYCHQRNSFPYTFGQGTKLEIKR |
